Experimental findings from paper PMC7107572 are described below.

A short description of data set [1]: pyruvate kinase activity, HeLa lysate. Particulars: glycan gained; control: vector and OGTcd.
Data set [2] in a line: exogenous PKM2 protein level in xenograft tumors. The following applies: glycan lost; control: PKM2wt tumors.
Data set [3] is described as follows: sucrose density gradient ultracentrifugation, anti-Flag blot. Particulars: glycan lost; control: PKM2wt.
Data set [4] in a line: IP of HN-PKM2, anti-acetyl-lysine blot, 25 mM glucose. The following applies: glycan lost; control: PKM2wt.
The nature of data set [5]: basal ECAR, Seahorse XF24. The following applies: glycan lost; control: PKM2wt cells.
The nature of data set [6]: LDH-coupled pyruvate kinase assay, PEP titration, HeLa. Particulars: glycan lost; control: PKM2wt.
The nature of data set [7]: residual medium glucose normalised to cell number. Particulars: glycan lost; control: PKM2wt cells.

Consider “pyruvate kinase M2 (PKM2): OGTwt overexpression”, for which the enzymatic_activity result in data set [1] is recorded as “decreases”.

Take pyruvate kinase M2 (PKM2): S362A: in data set [2], the expression_or_secretion entry was “no change”. In addition, in data set [3], the oligomerisation result was “increases”. In addition, in data set [4], the “other: OGA-induced lysine acetylation” value is “no change”. Further, the “other: glycolytic flux” value in data set [5] is on record as “decreases”. The enzymatic_activity entry in data set [6] was “increases”. The “other: cellular glucose consumption” value in data set [7] is reported as “decreases”.

As for pyruvate kinase M2 (PKM2): T365A, in data set [2], the expression_or_secretion result was “no change”. Further, the oligomerisation result in data set [3] is listed as “increases”. Besides, the “other: glycolytic flux” value in data set [5] was “decreases”. For the same substance, in data set [6], the enzymatic_activity result is “increases”. Also, in data set [7], the “other: cellular glucose consumption” value is “decreases”.
